The values below come from paper PMC5575113.

Where only a bound is given, the exact number is not on record here.

Experiment [1] addresses GroES^7I25A1 (E. coli).
Experiment [2] concerns the target GroES^7I25A1 (E. coli). The source holds these as a separate data set.
The target of another experiment is GroES^7I25D1,4 (E. coli). The experiment in a line: MST; cochaperonin labelled with DyLight 650, unlabelled GroEL or GroEL^SR titrated (serial dilution of 15 samples), 30 min incubation; 50 mM TrisCl pH 7.5, 100 mM KCl, 10 mM MgCl2, 1 mM EDTA, 2 mM ADP, 0.5 mg/mL BSA; Monolith NT115, 80% LED, 40% IR-laser.
The target in a further experiment is GroES^7I25D1,3 (E. coli). Described as above.
The target in experiment [3] is GroES^7I25D1,4,7 (E. coli). The experiment is described as above.
Another experiment deals with GroESI25A (E. coli) (UniProt P0A6F9). The experiment in a line: MST; cochaperonin labelled with DyLight 650; unlabelled GroEL or GroEL^SR in a serial dilution of 15 samples; 50 mM TrisCl pH 7.5, 100 mM KCl, 10 mM MgCl2, 1 mM EDTA, 2 mM ADP, 0.5 mg/mL BSA; 30 min incubation.
For experiment [4], the target named is GroES^7I25A_(1,4,6) (E. coli). The experiment is described as above.
For the next experiment, the target named is GroESL27A (E. coli) (UniProt P0A6F9). The experiment is described as above.
Experiment [5] deals with GroES^7I25A1,4 (E. coli). The experiment is described as above.
Experiment [6] deals with GroES^7I25A1,2 (E. coli). Described as above.
Experiment [7] deals with GroES^7I25A1,3 (E. coli). The description is as above.
For experiment [8], the target named is GroES^7I25A_(1,4,7) (E. coli). Described as above.
Experiment [9] concerns the target GroES^7I25A_(1,4,6) (E. coli).
Experiment [10] addresses GroES^7I25A1 (E. coli). The source holds these as a separate data set.
Experiment [11] has as its target GroES^7I25A1,4 (E. coli).
The target in experiment [12] is GroES^7I25A1,2 (E. coli).
Experiment [13] deals with GroES^7I25A1,3 (E. coli).
Experiment [14] deals with GroES^7I25A_(1,4,7) (E. coli).
For experiment [15], the target named is GroES^7 (E. coli). Nature of the experiment: MST; cochaperonin labelled with DyLight 650, unlabelled GroEL or GroEL^SR titrated (serial dilution of 15 samples), 30 min incubation; 50 mM TrisCl pH 7.5, 100 mM KCl, 10 mM MgCl2, 1 mM EDTA, 2 mM ADP, 0.5 mg/mL BSA; Monolith NT115, 80% LED, 40% IR-laser.
A further experiment deals with GroES^7I25D1 (E. coli). Described as above.
The target in experiment [16] is GroES^7I25A1,4 (E. coli). Described as above.
For a further experiment, the target named is GroES^7I25D1,2 (E. coli). Described as above.
Experiment [17] deals with GroES^7I25A1,2 (E. coli). The experiment is described as above.
Experiment [18] deals with GroES^7I25A1,3 (E. coli). The description is as above.
Experiment [19] has as its target GroES^7 (E. coli). Nature of the experiment: MST; cochaperonin labelled with DyLight 650; unlabelled GroEL or GroEL^SR in a serial dilution of 15 samples; 50 mM TrisCl pH 7.5, 100 mM KCl, 10 mM MgCl2, 1 mM EDTA, 2 mM ADP, 0.5 mg/mL BSA; 30 min incubation.
The target in experiment [20] is GroES^7I25A1 (E. coli). The description is as above.

GroEL, sequence (P0A6F5 whole entry): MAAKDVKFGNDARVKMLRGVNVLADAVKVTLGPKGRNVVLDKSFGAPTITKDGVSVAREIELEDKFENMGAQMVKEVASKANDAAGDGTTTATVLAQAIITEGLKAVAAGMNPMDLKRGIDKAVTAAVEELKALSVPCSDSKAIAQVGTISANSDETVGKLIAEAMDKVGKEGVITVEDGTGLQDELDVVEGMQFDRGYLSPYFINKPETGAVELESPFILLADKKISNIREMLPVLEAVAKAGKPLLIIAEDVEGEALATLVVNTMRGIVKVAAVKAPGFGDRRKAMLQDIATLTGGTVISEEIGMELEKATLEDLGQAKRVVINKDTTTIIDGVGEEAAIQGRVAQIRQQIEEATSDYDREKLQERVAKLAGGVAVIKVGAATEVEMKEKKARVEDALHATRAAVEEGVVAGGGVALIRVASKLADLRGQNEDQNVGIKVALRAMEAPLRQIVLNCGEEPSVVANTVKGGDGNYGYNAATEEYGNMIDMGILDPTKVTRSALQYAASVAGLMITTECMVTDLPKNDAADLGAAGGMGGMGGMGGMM

A word on the Kd: it is a measure of binding affinity in units of concentration. Low readings indicate higher affinity, high ones lower affinity. Consider “GroEL (from UniProt P0A6F5 1-548) (natural protein)”, for which the yield of GroEL-mediated MDH folding with GroES^7I25A1 (E. coli) [1] was determined as 72%. The ATPase activity of GroEL left in the presence of the variant in the experiment with GroES^7I25A1 (E. coli) [2] was 53.2%. For the same substance, the dissociation constant (Kd) with GroES^7I25D1,4 (E. coli) was 9.58 nM; with GroES^7I25D1,3 (E. coli), 13.3 nM; in experiment [3] it was 40 nM; with GroESI25A (E. coli) it was greater than 5000 nM; with GroESL27A (E. coli), greater than 5000 nM. Moreover, the fold reduction of affinity against GroES^7 was greater than 25 fold in experiment [4]; 2 fold with GroES^7I25A1,4 (E. coli) [5]; 2 fold with GroES^7I25A1,2 (E. coli) [6]; 2 fold in the experiment with GroES^7I25A1,3 (E. coli) [7]; greater than 25 fold in experiment [8].
On to “GroEL^SR (GroEL R452A/E461A/S463A/V464A) (from UniProt P0A6F5 1-548) (natural protein)”, for which the inhibition of the ATPase of GroEL^SR in experiment [9] was 20%; in the experiment with GroES^7I25A1 (E. coli) [10], 80%; in the experiment with GroES^7I25A1,4 (E. coli) [11] it was 50%; in the experiment with GroES^7I25A1,2 (E. coli) [12] it was 50%; with GroES^7I25A1,3 (E. coli) [13] it was 50%; in experiment [14] it was 20%. The equilibrium dissociation constant (Kd) in the experiment with GroES^7 (E. coli) [15] came out at 4.54 nM; with GroES^7I25D1 (E. coli) it was 25.6 nM; in the experiment with GroES^7I25D1,4 (E. coli) it was 73.1 nM; in the experiment with GroES^7I25A1,4 (E. coli) [16], 51.3 nM; with GroES^7I25D1,2 (E. coli), 38.7 nM; in the experiment with GroES^7I25D1,3 (E. coli), 71.9 nM. Moreover, the Kd is 35 nM with GroES^7I25A1,2 (E. coli) [17], 39.7 nM with GroES^7I25A1,3 (E. coli) [18], 3.7 nM with GroES^7 (E. coli) [19] and 8.5 nM in the experiment with GroES^7I25A1 (E. coli) [20]. Moreover, the fold reduction of affinity against GroES^7 with GroES^7I25A1,4 (E. coli) [5], with GroES^7I25A1,2 (E. coli) [6] and with GroES^7I25A1,3 (E. coli) [7] was greater than 10 fold in each case.
